Measurements from patent publication US8815802 (Novo Nordisk, dated 2014).
Numbered stars: 1 amine (or outer) side, 2 acyl side, 3 side chain; on linkers, the order of the positions; unused ones are H or OH. Square brackets hold non-standard residues; d marks the D form. Side chains are listed from the residue outwards. Ends that are not written are not given here. * marks the point of attachment. X1 = 4‑(16-(1H-tetrazol-5-yl)hexadecanoylsulfamoyl)butanoyl, O=C(CCCCCCCCCCCCCCCc1nn[nH]n1)NS(=O)(=O)CCCC(=O)*; C18 diacid = O=C(O)CCCCCCCCCCCCCCCCC(=O)*; C16 diacid = O=C(O)CCCCCCCCCCCCCCC(=O)*; γGlu = O=C(O)[C@H](CCC(=O)[*:2])N[*:1]; NMeA = CN[C@@H](C)C(=O)O; AEEA = NCCOCCOCC(=O)O

Tests used:
human GLP-1 receptor [1] = target: T1, human GLP-1 receptor (human, UniProt P43220 24-463); assay: SPA, displacement of 125I-GLP-1(7-36)NH2 from hGLP-1R membranes, 2.0% HSA
T1 construct: whole, on cells; Used as purified plasma membranes of the transfected hamster cell line, not as intact cells; also called hGLP-1
Experimental: (§1) 25 ul (micro liter) of test compounds were added to Optiplate. HSA ("high albumin" experiment containing 2% HSA), or buffer ("low albumin" experiment containing 0.005% HSA), was added (50 ul). 5-10 ug protein/sample was added (50 ul) corresponding to 0.1-0.2 mg protein/ml (to be preferably optimised for each membrane preparation). SPA-particles (Wheatgerm agglutinin SPA beads, Perkin Elmer, #RPNQ0001) were added in an amount of 0.5 mg/well (50 ul). […] The plates were sealed with PlateSealer and incubated for 120 minutes at 30° C. while shaking. The plates were centrifuged (1500 rpm, 10 min) and counted in Topcounter.

human GLP-1 receptor [2] = target: T1, human GLP-1 receptor; assay: SPA, displacement of 125I-GLP-1(7-36)NH2 from hGLP-1R membranes, 0.005% HSA
Experimental: as §1

Binder	IC50 (human GLP-1 receptor [1])	IC50 (human GLP-1 receptor [2])
HAEGTFTSDVSSYLEGQAAK([AEEA-AEEA-γGlu-C16 diacid])EFIAHLVQGRG	≤ 1 µM	< 0.6 µM
HXEGTFTSDVSSYLEGQAAKEFIEHLVQGKGE (HELM PEPTIDE1{H.[Aib].E.G.T.F.T.S.D.V.S.S.Y.L.E.G.Q.A.A.K.E.F.I.E.H.L.V.Q.G.K.G.E.[am]}$$$$V2.0; N-terminus assumed; SMILES CC[C@H](C)[C@H](NC(=O)[C@H](Cc1ccccc1)NC(=O)[C@H](CCC(=O)O)NC(=O)[C@H](CCCCN)NC(=O)[C@H](C)NC(=O)[C@H](C)NC(=O)[C@H](CCC(N)=O)NC(=O)CNC(=O)[C@H](CCC(=O)O)NC(=O)[C@H](CC(C)C)NC(=O)[C@H](Cc1ccc(O)cc1)NC(=O)[C@H](CO)NC(=O)[C@H](CO)NC(=O)[C@@H](NC(=O)[C@H](CC(=O)O)NC(=O)[C@H](CO)NC(=O)[C@@H](NC(=O)[C@H](Cc1ccccc1)NC(=O)[C@@H](NC(=O)CNC(=O)[C@H](CCC(=O)O)NC(=O)C(C)(C)NC(=O)[C@@H](N)Cc1c[nH]cn1)[C@@H](C)O)[C@@H](C)O)C(C)C)C(=O)N[C@@H](CCC(=O)O)C(=O)N[C@@H](Cc1c[nH]cn1)C(=O)N[C@@H](CC(C)C)C(=O)N[C@H](C(=O)N[C@@H](CCC(N)=O)C(=O)NCC(=O)N[C@@H](CCCCN)C(=O)NCC(=O)N[C@@H](CCC(=O)O)C(N)=O)C(C)C, unacylated analogue; also called (8Aib, 30E, 31H, 34Q, 36K, 38E)) [[Aib^8,Glu^30,His^31,Gln^34,Lys^36] GLP-1(7-37)yl-Glu^38-peptide amide]	≤ 1 µM	< 0.6 µM
HXEGTFTSDVSSYLEGQAAKEFIAHLVQGRG (Aib8; Lys26 N-epsilon-acylated (side chain as in name); GLP-1(7-37) numbering)	≤ 1 µM	< 0.6 µM
HXEGTFTSDVSSYLEGQAAKEFIAHLVQGRG (not fully specified; Aib8; Lys26 N-epsilon-acylated (branched side chain as in name); GLP-1(7-37) numbering)	≤ 1 µM	< 0.6 µM

Continued, values first:

IC50 (human GLP-1 receptor [1])	IC50 (human GLP-1 receptor [2])	Binder
≤ 1 µM	< 0.6 µM	H[NMeA]EGTFTSDVSSYLEGQAAK([AEEA-AEEA-γGlu-C18 diacid])EFIAHLVQGRG [N^8-methyl, …]
≤ 1 µM	< 0.6 µM	HAEGTFTSDVSSYLEGQAAK(X1)EFIAHLVQGRG [N^ε26-4-[16-(1H-tetrazol-5-yl)hexadecanoylsulfamoyl]butanoyl-[His^31,Gln^34]-GLP-1-(7-37)-peptide]
≤ 1 µM	< 0.6 µM	HXEGTFTSDVSSYLEGQAAKEFIEHLVQGKGE (HELM PEPTIDE1{H.[Aib].E.G.T.F.T.S.D.V.S.S.Y.L.E.G.Q.A.A.K.E.F.I.E.H.L.V.Q.G.K.G.E.[am]}|PEPTIDE2{[O=C(O)CCCCCCCCCCCCCCCCC(=O)[*:2]].[O=C(COCCOCCN[*:1])[*:2]]}$PEPTIDE1,PEPTIDE2,30:R3-2:R2$$$V2.0; N-terminus assumed; SMILES CC[C@H](C)[C@H](NC(=O)[C@H](Cc1ccccc1)NC(=O)[C@H](CCC(=O)O)NC(=O)[C@H](CCCCN)NC(=O)[C@H](C)NC(=O)[C@H](C)NC(=O)[C@H](CCC(N)=O)NC(=O)CNC(=O)[C@H](CCC(=O)O)NC(=O)[C@H](CC(C)C)NC(=O)[C@H](Cc1ccc(O)cc1)NC(=O)[C@H](CO)NC(=O)[C@H](CO)NC(=O)[C@@H](NC(=O)[C@H](CC(=O)O)NC(=O)[C@H](CO)NC(=O)[C@@H](NC(=O)[C@H](Cc1ccccc1)NC(=O)[C@@H](NC(=O)CNC(=O)[C@H](CCC(=O)O)NC(=O)C(C)(C)NC(=O)[C@@H](N)Cc1c[nH]cn1)[C@@H](C)O)[C@@H](C)O)C(C)C)C(=O)N[C@@H](CCC(=O)O)C(=O)N[C@@H](Cc1c[nH]cn1)C(=O)N[C@@H](CC(C)C)C(=O)N[C@H](C(=O)N[C@@H](CCC(N)=O)C(=O)NCC(=O)N[C@@H](CCCCNC(=O)COCCOCCNC(=O)CCCCCCCCCCCCCCCCC(=O)O)C(=O)NCC(=O)N[C@@H](CCC(=O)O)C(N)=O)C(C)C)
≤ 1 µM	< 0.6 µM	HXEGTFTSDVSSYLEGQAAKEFIAHLVQGRGK (Aib8 (GLP-1(7-37) numbering), unacylated analogue; also called (8Aib, 31H, 34Q, 38K)) [N^α([Aib^8,His^31,Gln^34]-GLP-1-(7-37)-peptidyl)-Lysine]
